Biological target: PfSAHH (recombinant S-adenosyl-L-homocysteine hydrolase), P50250
Assay: SPR
Settings: chain shown with the change; Maximum response at end of analyte injection; SAHH on the sensor surface oxidized with 0.5 mM DTNB; 30 µl of analyte, 10 µM in HBS buffer; pre-injection …; parent: est. 93; read off a plot

PfSAHH (recombinant S-adenosyl-L-homocysteine hydrolase), P50250, sequence (P50250 whole entry): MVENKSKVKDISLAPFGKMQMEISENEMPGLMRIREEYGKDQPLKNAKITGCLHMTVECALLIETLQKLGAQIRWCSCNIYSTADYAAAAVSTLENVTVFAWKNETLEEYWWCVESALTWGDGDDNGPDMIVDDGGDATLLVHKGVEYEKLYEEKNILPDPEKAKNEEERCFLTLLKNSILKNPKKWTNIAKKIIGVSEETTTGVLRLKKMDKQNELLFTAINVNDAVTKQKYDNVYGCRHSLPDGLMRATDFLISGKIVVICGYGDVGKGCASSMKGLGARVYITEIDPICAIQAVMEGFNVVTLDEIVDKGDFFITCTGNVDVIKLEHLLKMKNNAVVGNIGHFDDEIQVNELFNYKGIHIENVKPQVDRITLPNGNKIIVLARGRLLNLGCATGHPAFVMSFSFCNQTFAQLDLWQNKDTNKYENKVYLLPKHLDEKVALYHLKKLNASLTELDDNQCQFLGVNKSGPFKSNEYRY

Row | Binder | response (RD (normalized))
1 | PfGrx1 (wild type glutaredoxin) C32S (protein) MAGTSEAVKKWVNKIIEENIIAVFAKTECPYSIKAISILKGYNLNSHMHVENIEKNPDMANIQAYLKELTGKSSVPRIFINKDVVGGCDDLVKENDEGKLKERLQKLGLVN | 98
2 | PfGrx1 (wild type glutaredoxin) C29S; C32S (protein) MAGTSEAVKKWVNKIIEENIIAVFAKTESPYSIKAISILKGYNLNSHMHVENIEKNPDMANIQAYLKELTGKSSVPRIFINKDVVGGCDDLVKENDEGKLKERLQKLGLVN | 59
